Results: patent US20140161803A1 (IFOM Fondazione Istituo FIRC di Oncologia Molecolare, priority 2011, published 2014)

Test system: PC-3 cells
Assay: PC3 prostate cancer xenograft tumor growth
Type: in vivo, Balb C nu/nu mice
Conditions: 10.0 mg/kg i.p. bi-weekly; s.c. PC-3 xenograft; versus control animals
Description: Male Balb C nu/nu mice were inoculated with (1×10^6) PC-3 cells through the subcutaneous (s.c.) route. […] Tumors were measured twice weekly, and tumor volume was determined as described in Materials and Methods.
Six-week-old male Balb C nu/nu mice were obtained from Charles River. Before inoculation, PC-3 cells growing in serum-containing medium were washed with phosphate buffered saline (PBS), harvested by trypsinization, and pelleted at 1200 rpm for 7 minutes. Cells (1.0×10^6) were resuspended in 200 μl of PBS with 20% Matrigel. Animals were anesthetized by intraperitoneal (i.p.) injection of Avertin and 1.0×10^6 cells were inoculated subcutaneously (s.c.) using a 26-gauge needle into the right flank of anesthetized mice. […] The animals were monitored twice a week for 7 weeks for tumor development and growth. Tumor volume was determined according to the formula: tumor volume=shorter diameter^2×longer diameter/2. […] Results were analyzed as the mean±SE, and comparisons of the experimental data were analyzed by unpaired, two-tailed, equal variance, t-test.
In this model, one million PC3 cells were inoculated in the right flank of male Balb C nu/nu mice through subcutaneous route.

B1: 13F6: non-inhibitory monoclonal anti-uPAR antibody raised against GFDuPAR-hFc; IgG1 κ (antibody, V domains shown)
VH: ELVKPGASVELSCKASGYTFTSYWMNWVKQRPGRGLEWIGRIAPNSGGTQYSGKFKTKATLTVDKSSSTAYMQLSSLTSEDSAVYYCARGDYFGHFDYWGQGTTLTVS
VL: SLSASLGGKVTITCKASQDINNYIAWYQHKPGKGPRLLIHYTSILQPGIPSRFSGSGSGRDYSFSISNLEPEDIATYYCLQCDNLLTFGAGTKLELK
- effect on tumor volume: A similar inhibition was not observed
